Data as given in patent US20220025021A1 (BETH ISRAEL DEACONESS MEDICAL CENTER, published 2022).

How the values were obtained:
Experiment in all cases: cell-based or functional assay
[1] = target: HIV-1 Env of pseudovirus SC422661.8 (HIV-1)
[2] = target: HIV-1 Env of pseudovirus RHPA4259.7 (HIV-1)
[3] = target: HIV-1 Env of pseudovirus Du172.17 (HIV-1)
[4] = target: HIV-1 Env of pseudovirus BB1012-11.TC21 (HIV-1)
[5] = target: HIV-1 Env of pseudovirus CNE52 (HIV-1)
[6] = target: HIV-1 Env of pseudovirus 0260.v5.c36 (HIV-1)

Binder | neutralization IC50 [1] [mg/L] | neutralization IC80 [1] [mg/L] | neutralization IC50 [2] [mg/L] | neutralization IC80 [2] [mg/L] | neutralization IC50 [3] [mg/L] | neutralization IC80 [3] [mg/L] | neutralization IC50 [4] [mg/L] | neutralization IC80 [4] [mg/L] | neutralization IC50 [5] [mg/L] | neutralization IC80 [5] [mg/L] | neutralization IC50 [6] [mg/L] | neutralization IC80 [6] [mg/L]
MS-70 (antibody, V domains shown) VH: QVQLVQSGPEVRKPGTSVKVSCKAPGNTLKTYDLHWVRSVPGQGLQWMGWISHEGDKKVIVERFKAKVTIDWDRSTNTAYLQLSGLTSGDTAVYYCAKGSKHRLRDYALYDDDGALNWAVDVDYLSNLEFWGQGTAVTVSS VL: DFVLTQSPHSLSVTPGESASISCKSSHSLIHGDRNNYLAWYVQKPGQSPQLLIYLASSRASGVPDRFSGSGSDKDFTLKISRVETEDVGTYYCMQGRESPWTFGQGTKVDIKR | 0.391 | 2.43 | 0.182 | 0.734 | 1.49 | 6.05 | 0.021 | 0.079 | 0.301 | 2.55 | 0.028 | 0.103
MS-74 (antibody, V domains shown) VH: QVQLVQSGPEVRKPGTSVKVSCKAPGNTLKTYDLHWVRSVPGQGLQWMGWISHEGDKKVIVERFKAKVTIDWDRSTNTAYLQLSGLTSGDTAVYYCAKGSKHRLRDYALYDDDGALNWAVDVDYLSNLEFWGQGTAVTVSS VL: DFVLTQSPHSLSVTPGESASISCKSSHSLIHGDRNNYLAWYVQKPGRSPQLLIYLASSRASGVPDRFSGSGSDKDFTLKISRVETEDVGVYYCMQGRESPWTFGQGTKVDIKR | 0.388 | 3.51 | 0.132 | 0.461 | 1.46 | 5.57 | 0.021 | 0.093 | 0.169 | 1.46 | 0.017 | 0.086
MS-76 (antibody, V domains shown) VH: QVQLVQSGPEVRKPGTSVKVSCKAPGYTLKTYDLHWVRSVPGQGLQWMGWISHEGDKKVIVERFKAKVTIDWDRSTNTAYLQLSGLTSGDTAVYYCAKGSKHRLRDYALYDDDGALNWAVDVDYLSNLEFWGQGTAVTVSS VL: DFVLTQSPHSLSVTPGESASISCKSSHSLIHGDRNNYLAWYVQKPGRSPQLLIYLASSRASGVPDRFSGSGSDKDFTLKISRVETEDVGTYYCMQGRESPWTFGQGTKVDIKR | 0.36 | 6.46 | 0.242 | 0.842 | 1.7 | 9.68 | 0.013 | 0.059 | 0.174 | 1.37 | 0.01 | 0.06
MS-72 (antibody, V domains shown) VH: QVQLVQSGPEVRKPGTSVKVSCKAPGNTLKTYDLHWVRSVPGQGLQWMGWISHEGDKKVIVERFKAKVTIDWDRSTNTAYLQLSGLTSGDTAVYYCAKGSKHRLRDYALYDDDGALNWAVDVDYLSNLEFWGQGTAVTVSS VL: DFVLTQSPHSLSVTPGESASISCKSSHSLIHGDRNNYLAWYVQKPGRSPQLLIYLASSRASGVPDRFSGSGSDTDFTLKISRVETEDVGTYYCMQGRESPWTFGQGTKVDIKR | 0.373 | 2.83 | 0.247 | 1.16 | 1.75 | 8.76 | 0.023 | 0.089 | 0.302 | 4.53 | 0.023 | 0.114
MS-77 (antibody, V domains shown) VH: QVQLVQSGPEVRKPGTSVKVSCKAPGNTFKTYDLHWVRSVPGQGLQWMGWISHEGDKKVIVERFKAKVTIDWDRSTNTAYLQLSGLTSGDTAVYYCAKGSKHRLRDYALYDDDGALNWAVDVDYLSNLEFWGQGTAVTVSS VL: DFVLTQSPHSLSVTPGESASISCKSSHSLIHGDRNNYLAWYVQKPGRSPQLLIYLASSRASGVPDRFSGSGSDKDFTLKISRVETEDVGTYYCMQGRESPWTFGQGTKVDIKR | 0.373 | 3.59 | 0.209 | 0.734 | 2.23 | 12.2 | 0.023 | 0.103 | 0.322 | 2.71 | 0.019 | 0.101
MS-75 (antibody, V domains shown) VH: QVQLVQSGPEVRKPGTSVKVSCKASGNTLKTYDLHWVRSVPGQGLQWMGWISHEGDKKVIVERFKAKVTIDWDRSTNTAYLQLSGLTSGDTAVYYCAKGSKHRLRDYALYDDDGALNWAVDVDYLSNLEFWGQGTAVTVSS VL: DFVLTQSPHSLSVTPGESASISCKSSHSLIHGDRNNYLAWYVQKPGRSPQLLIYLASSRASGVPDRFSGSGSDKDFTLKISRVETEDVGTYYCMQGRESPWTFGQGTKVDIKR | 0.489 | 9.41 | 0.276 | 1.31 | 3.56 | 16.1 | 0.029 | 0.134 | 0.687 | 7.55 | 0.034 | 0.137
MS-78 (antibody, V domains shown) VH: QVQLVQSGPEVRKPGTSVKVSCKAPGNTLKTYDLHWVRSVPGQGLEWMGWISHEGDKKVIVERFKAKVTIDWDRSTNTAYLQLSGLTSGDTAVYYCAKGSKHRLRDYALYDDDGALNWAVDVDYLSNLEFWGQGTAVTVSS VL: DFVLTQSPHSLSVTPGESASISCKSSHSLIHGDRNNYLAWYVQKPGRSPQLLIYLASSRASGVPDRFSGSGSDKDFTLKISRVETEDVGTYYCMQGRESPWTFGQGTKVDIKR | 0.635 | 3.63 | 0.241 | 0.841 | 1.71 | 7 | 0.024 | 0.105 | 0.233 | 1.39 | 0.02 | 0.095
MS-68 (antibody) VH: not shown VL: DFVLTQSPHSLPVTPGESASISCKSSHSLIHGDRNNYLAWYVQKPGRSPQLLIYLASSRASGVPDRFSGSGSDKDFTLKISRVETEDVGTYYCMQGRESPWTFGQGTKVDIKRTVAAPSVFIFPPSDEQLKSGTASVVCLLNNFYPREAKVQWKVDNALQSGNSQESVTEQDSKDSTYSLSSTLTLSKADYEKHKVYACEVTHQGLSSPVTKSFNRGEC | 0.538 | 2.02 | 0.199 | 0.759 | 1.82 | 6.8 | 0.023 | 0.076 | 0.136 | 1.13 | 0.019 | 0.073
MS-73 (antibody) VH: not shown VL: DFVLTQSPHSLSVTPGESASISCKSSHSLIHGDRNNYLAWYVQKPGRSPQLLIYLASSRASGVPDRFSGSGSDKDFTLKISRVEAEDVGTYYCMQGRESPWTFGQGTKVDIKRTVAAPSVFIFPPSDEQLKSGTASVVCLLNNFYPREAKVQWKVDNALQSGNSQESVTEQDSKDSTYSLSSTLTLSKADYEKHKVYACEVTHQGLSSPVTKSFNRGEC | 0.384 | 2.54 | 0.094 | 0.549 | 0.934 | 5 | 0.023 | 0.086 | 0.207 | 1.81 | 0.018 | 0.065
MS-69 (antibody) VH: not shown VL: DFVLTQSPHSLSVTPGEPASISCKSSHSLIHGDRNNYLAWYVQKPGRSPQLLIYLASSRASGVPDRFSGSGSDKDFTLKISRVETEDVGTYYCMQGRESPWTFGQGTKVDIKRTVAAPSVFIFPPSDEQLKSGTASVVCLLNNFYPREAKVQWKVDNALQSGNSQESVTEQDSKDSTYSLSSTLTLSKADYEKHKVYACEVTHQGLSSPVTKSFNRGEC | 0.609 | 3.37 | 0.139 | 0.811 | 1.4 | 5.6 | 0.018 | 0.071 | 0.129 | 1.9 | 0.021 | 0.078
MS-71 (antibody) VH: not shown VL: DFVLTQSPHSLSVTPGESASISCKSSHSLIHGDRNNYLAWYVQKPGRSPQLLIYLASSRASGVPDRFSGSGSGKDFTLKISRVETEDVGTYYCMQGRESPWTFGQGTKVDIKRTVAAPSVFIFPPSDEQLKSGTASVVCLLNNFYPREAKVQWKVDNALQSGNSQESVTEQDSKDSTYSLSSTLTLSKADYEKHKVYACEVTHQGLSSPVTKSFNRGEC | 0.273 | 1.94 | 0.164 | 0.583 | 1.29 | 6.07 | 0.015 | 0.054 | 0.172 | 2.59 | 0.022 | 0.062
